Values of other authors in publication PMC5290461.

Target: integrin beta1A cytoplasmic tail (Homo sapiens) (UniProt P05556)
Assay: NMR

Sequence of UniProt P05556 (P05556 752-798): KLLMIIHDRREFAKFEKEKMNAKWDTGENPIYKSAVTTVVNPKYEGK

Substance	Kd
talin1 F3 (from UniProt P26039)	491 µM
talin2 F3 (from UniProt Q71LX4)	652 µM
